Data taken from the supplement of paper PMC10065799, “High-throughput profiling of sequence recognition by tyrosine kinases and SH2 domains using bacterial peptide display” (eLife, 2023).

Columns and labels:
Jak2 = Jak2 (UniProt O60674); experiment: phosphorylation enrichment, bacterial display (enrichment ratio); higher = better substrate or ligand; peptides without Tyr show the background
Hck = Hck (UniProt P08631); experiment: as above
c-Src = experiment: as above
MERTK = MERTK (UniProt Q12866); experiment: as above
Chain of MERTK (Q12866 whole entry, looked up): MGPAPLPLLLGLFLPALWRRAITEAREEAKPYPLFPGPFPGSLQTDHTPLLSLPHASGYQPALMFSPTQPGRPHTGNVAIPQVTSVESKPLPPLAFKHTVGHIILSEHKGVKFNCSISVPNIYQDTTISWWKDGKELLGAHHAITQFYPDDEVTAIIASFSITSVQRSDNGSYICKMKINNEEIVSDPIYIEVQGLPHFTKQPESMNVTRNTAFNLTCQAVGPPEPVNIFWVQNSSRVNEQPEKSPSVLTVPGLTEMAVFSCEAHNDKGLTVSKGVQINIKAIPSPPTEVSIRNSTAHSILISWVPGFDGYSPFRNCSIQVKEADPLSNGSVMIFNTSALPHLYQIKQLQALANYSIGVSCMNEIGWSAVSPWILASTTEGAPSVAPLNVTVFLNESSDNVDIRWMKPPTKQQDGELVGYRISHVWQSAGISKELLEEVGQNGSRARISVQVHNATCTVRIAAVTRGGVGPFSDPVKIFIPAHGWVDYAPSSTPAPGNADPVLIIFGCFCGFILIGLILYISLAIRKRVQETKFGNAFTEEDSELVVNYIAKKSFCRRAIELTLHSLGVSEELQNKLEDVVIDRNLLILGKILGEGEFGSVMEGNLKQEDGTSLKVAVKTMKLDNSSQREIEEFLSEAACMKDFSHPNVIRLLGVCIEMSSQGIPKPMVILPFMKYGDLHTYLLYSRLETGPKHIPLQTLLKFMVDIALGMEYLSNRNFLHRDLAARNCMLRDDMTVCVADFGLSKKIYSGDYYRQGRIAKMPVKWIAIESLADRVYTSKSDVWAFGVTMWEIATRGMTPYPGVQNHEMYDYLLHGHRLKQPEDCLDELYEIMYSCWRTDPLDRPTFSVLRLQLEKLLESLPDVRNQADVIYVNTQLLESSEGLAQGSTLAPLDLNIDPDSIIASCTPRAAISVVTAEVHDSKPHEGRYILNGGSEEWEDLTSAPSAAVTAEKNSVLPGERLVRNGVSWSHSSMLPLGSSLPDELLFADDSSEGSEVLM

Fer (mouse) = experiment: as above
FGFR3 = FGFR3 (UniProt P22607); experiment: as above
Chain of FGFR3 (P22607 whole entry, looked up): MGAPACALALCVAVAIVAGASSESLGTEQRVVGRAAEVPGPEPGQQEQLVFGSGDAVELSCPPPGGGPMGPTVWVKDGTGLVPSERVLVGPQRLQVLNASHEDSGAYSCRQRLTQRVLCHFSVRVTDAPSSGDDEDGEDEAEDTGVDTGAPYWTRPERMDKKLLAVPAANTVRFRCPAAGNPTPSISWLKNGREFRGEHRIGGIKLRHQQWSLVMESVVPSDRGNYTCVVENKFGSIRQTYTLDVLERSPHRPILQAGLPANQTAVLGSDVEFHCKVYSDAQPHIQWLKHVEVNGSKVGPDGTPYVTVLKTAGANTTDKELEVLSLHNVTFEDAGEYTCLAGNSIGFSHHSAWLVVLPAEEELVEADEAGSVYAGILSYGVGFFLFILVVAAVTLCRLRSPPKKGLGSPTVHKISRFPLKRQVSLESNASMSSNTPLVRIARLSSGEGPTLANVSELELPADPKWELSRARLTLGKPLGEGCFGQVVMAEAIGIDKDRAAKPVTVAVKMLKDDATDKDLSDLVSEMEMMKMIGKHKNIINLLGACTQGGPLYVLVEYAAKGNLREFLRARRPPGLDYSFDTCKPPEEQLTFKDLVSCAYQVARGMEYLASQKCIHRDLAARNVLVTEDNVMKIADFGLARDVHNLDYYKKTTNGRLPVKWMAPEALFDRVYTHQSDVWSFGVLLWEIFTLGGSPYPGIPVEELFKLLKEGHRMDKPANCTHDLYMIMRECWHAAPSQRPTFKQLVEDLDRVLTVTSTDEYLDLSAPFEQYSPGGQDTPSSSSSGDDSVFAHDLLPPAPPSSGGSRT

AncSZ = experiment: as above
EPHB1 = EPHB1 (UniProt P54762); experiment: as above
Chain of EPHB1 (P54762 whole entry, looked up): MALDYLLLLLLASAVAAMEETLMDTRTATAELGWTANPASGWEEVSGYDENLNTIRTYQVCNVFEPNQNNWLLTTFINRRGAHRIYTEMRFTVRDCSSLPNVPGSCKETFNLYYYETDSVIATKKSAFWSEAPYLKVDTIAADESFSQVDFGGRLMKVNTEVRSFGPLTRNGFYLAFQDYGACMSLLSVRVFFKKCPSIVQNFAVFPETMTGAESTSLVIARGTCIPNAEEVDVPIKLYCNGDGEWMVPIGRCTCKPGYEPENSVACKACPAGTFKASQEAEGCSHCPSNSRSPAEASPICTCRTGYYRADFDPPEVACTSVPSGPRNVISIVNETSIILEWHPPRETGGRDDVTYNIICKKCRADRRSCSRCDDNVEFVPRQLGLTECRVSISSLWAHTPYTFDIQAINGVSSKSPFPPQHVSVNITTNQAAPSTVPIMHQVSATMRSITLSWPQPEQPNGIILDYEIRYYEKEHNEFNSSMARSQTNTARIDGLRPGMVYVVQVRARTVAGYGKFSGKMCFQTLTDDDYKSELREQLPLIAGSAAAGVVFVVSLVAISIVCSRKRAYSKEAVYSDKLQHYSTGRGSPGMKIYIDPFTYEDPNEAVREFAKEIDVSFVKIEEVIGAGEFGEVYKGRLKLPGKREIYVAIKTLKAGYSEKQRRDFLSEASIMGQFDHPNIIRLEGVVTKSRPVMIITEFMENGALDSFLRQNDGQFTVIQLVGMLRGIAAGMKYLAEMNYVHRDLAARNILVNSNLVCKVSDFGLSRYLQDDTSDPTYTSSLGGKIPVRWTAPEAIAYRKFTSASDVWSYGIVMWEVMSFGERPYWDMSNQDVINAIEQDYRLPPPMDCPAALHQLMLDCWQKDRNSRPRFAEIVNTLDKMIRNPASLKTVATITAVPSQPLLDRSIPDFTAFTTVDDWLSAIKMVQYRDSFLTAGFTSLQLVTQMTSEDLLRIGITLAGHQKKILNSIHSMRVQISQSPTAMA

c-Abl (mouse) = experiment: as above
Fyn = Fyn (UniProt P06241); experiment: as above
Chain of Fyn (P06241 whole entry, looked up): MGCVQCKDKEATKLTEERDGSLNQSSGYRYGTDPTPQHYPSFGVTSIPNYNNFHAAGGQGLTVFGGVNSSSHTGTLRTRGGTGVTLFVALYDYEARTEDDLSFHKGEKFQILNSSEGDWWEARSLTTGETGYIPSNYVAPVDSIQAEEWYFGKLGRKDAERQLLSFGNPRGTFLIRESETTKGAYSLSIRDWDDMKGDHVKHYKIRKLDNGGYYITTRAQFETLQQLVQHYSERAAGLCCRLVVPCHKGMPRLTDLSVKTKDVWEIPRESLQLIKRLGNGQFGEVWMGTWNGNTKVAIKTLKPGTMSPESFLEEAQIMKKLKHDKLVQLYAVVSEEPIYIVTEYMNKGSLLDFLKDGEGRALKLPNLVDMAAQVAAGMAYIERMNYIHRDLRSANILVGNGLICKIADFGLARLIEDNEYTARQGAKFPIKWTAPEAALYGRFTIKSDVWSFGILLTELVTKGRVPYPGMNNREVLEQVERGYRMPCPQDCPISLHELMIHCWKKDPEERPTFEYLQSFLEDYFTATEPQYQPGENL

EPHB2 = EPHB2 (UniProt P29323); experiment: as above
Fes = Fes (UniProt P07332); experiment: as above
Chain of Fes (P07332 whole entry, looked up): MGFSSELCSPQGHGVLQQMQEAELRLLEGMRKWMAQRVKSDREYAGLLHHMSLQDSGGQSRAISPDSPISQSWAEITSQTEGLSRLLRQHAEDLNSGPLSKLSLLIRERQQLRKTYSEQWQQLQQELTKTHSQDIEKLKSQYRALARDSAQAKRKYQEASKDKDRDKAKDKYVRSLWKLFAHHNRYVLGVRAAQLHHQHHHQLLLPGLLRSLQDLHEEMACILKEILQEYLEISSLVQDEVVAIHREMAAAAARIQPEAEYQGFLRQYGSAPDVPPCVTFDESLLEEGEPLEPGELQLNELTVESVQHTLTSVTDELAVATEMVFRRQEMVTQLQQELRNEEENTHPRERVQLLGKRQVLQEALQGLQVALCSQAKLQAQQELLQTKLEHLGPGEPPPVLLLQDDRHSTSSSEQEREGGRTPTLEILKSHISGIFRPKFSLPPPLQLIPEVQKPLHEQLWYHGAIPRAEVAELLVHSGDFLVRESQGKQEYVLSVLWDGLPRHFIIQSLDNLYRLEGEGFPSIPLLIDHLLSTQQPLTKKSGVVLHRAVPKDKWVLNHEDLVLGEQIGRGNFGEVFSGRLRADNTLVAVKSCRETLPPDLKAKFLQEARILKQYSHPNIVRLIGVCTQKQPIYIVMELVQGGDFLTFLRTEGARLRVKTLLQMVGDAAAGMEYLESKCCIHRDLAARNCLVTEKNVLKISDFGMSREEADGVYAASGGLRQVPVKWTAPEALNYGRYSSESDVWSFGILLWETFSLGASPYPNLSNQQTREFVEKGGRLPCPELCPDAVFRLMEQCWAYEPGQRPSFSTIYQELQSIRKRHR

FGFR1 = FGFR1 (UniProt P11362); experiment: as above
Grb2 SH2 = Grb2 SH2 (UniProt P62993); experiment: SH2 binding enrichment of the phosphorylated peptide, bacterial display (enrichment ratio); higher = better substrate or ligand; peptides without Tyr show the background
Chain of Grb2 SH2 (P62993 whole entry, looked up): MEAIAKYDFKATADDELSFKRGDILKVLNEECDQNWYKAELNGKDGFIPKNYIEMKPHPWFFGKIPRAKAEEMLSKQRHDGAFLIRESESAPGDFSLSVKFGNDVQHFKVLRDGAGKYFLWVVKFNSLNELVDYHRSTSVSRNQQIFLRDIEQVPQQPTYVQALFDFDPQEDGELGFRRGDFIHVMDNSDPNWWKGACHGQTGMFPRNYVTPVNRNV

c-Src SH2 = experiment: as above
SHP2-C SH2 = experiment: as above
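For SH2 binding enrichment of the phosphorylated peptide, bacterial display in this document: peptide library displayed on the E. coli surface as eCPX fusions, selected cells deep-sequenced, score is each peptide's frequency after selection divided by its frequency in the input.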
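For phosphorylation enrichment, bacterial display in this document: 11-residue human phosphosite peptides and single-mutation variants displayed on the E. coli surface, counted by deep sequencing, each peptide's frequency after selection divided by its frequency in the unselected input library; frequency after pTyr selection over input frequency; kinase dosed for 20-30% of maximal phosphorylation in three min.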

Chain of Hck (P08631 whole entry, looked up): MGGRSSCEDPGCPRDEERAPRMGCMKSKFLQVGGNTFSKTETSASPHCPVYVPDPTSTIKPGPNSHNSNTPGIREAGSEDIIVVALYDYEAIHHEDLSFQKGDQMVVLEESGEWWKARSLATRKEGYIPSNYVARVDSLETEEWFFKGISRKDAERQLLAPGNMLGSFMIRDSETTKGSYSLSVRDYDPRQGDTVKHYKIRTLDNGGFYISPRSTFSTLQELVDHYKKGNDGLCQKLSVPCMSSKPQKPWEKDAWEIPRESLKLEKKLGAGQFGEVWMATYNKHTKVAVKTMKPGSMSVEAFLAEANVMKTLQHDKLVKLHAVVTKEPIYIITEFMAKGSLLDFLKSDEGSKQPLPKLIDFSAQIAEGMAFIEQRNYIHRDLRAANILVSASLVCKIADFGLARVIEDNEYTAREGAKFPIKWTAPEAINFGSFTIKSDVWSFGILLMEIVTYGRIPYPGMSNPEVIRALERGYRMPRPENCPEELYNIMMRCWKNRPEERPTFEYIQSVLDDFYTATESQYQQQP

| Sequence | phosphorylation enrichment (Jak2) | phosphorylation enrichment (Hck) | phosphorylation enrichment (c-Src) | phosphorylation enrichment (MERTK) | phosphorylation enrichment (Fer (mouse)) | phosphorylation enrichment (FGFR3) | phosphorylation enrichment (AncSZ) | phosphorylation enrichment (EPHB1) | phosphorylation enrichment (c-Abl (mouse)) | phosphorylation enrichment (Fyn) | phosphorylation enrichment (EPHB2) | phosphorylation enrichment (Fes) | phosphorylation enrichment (FGFR1) | SH2 binding enrichment (Grb2 SH2) | SH2 binding enrichment (c-Src SH2) | SH2 binding enrichment (SHP2-C SH2) |
| --- | --- | --- | --- | --- | --- | --- | --- | --- | --- | --- | --- | --- | --- | --- | --- | --- |
| EALDFYGELRT [PTEN_Y155_V158L] | 1.33 | 1.25 | 0.805 | 0.453 | 0.779 | 0.964 | 1.27 | 0.771 | 0.843 | 0.933 | 0.764 | 1.48 | 0.571 | 0.775 | 0.503 | 0.731 |
| EARRVYGDIIY [ALDH5A1_Y175_H180Y] | 0.813 | 1.27 | 1.14 | 0.42 | 0.648 | 0.579 | 0.683 | 0.455 | 0.597 | 1.59 | 0.725 | 0.834 | 0.491 | 0.805 | 0.504 | 0.604 |
| EASEQYLTKAS [NRCAM_Y739] | 0.793 | 0.43 | 0.458 | 0.485 | 0.463 | 0.556 | 0.711 | 0.424 | 0.798 | 0.496 | 0.425 | 0.802 | 0.571 | 0.901 | 0.417 | 0.696 |
| EEALFYLTRVE [SET_Y119_H118Y_YF] | 1.61 | 0.68 | 0.557 | 0.472 | 0.835 | 1.05 | 1.43 | 0.967 | 1.03 | 0.58 | 0.828 | 1.67 | 0.599 | 0.774 | 0.414 | 0.796 |
| EEALHYLTRVE [SET_Y119] | 1 | 0.586 | 0.462 | 0.469 | 0.492 | 0.724 | 1.02 | 0.73 | 0.748 | 0.466 | 0.536 | 1.13 | 0.47 | 0.758 | 0.532 | 1.16 |
| EEEFEYMNRRR [ERBB3_Y1199_D1194E_YF] | 1.19 | 0.569 | 0.608 | 0.724 | 0.408 | 0.767 | 1.59 | 0.693 | 0.808 | 0.515 | 0.532 | 1.24 | 0.554 | 1.37 | 0.649 | 0.671 |
| EEESCYILHSS [PATJ_Y783] | 1.31 | 0.57 | 0.819 | 0.484 | 0.926 | 0.853 | 1.63 | 0.637 | 0.892 | 0.659 | 0.625 | 1.35 | 0.621 | 0.944 | 0.744 | 0.79 |
| EFGEVYKGTLK [EPHA2_Y628_M631T] | 0.425 | 0.398 | 0.376 | 0.362 | 0.448 | 0.426 | 0.603 | 0.539 | 0.521 | 0.373 | 0.409 | 0.549 | 0.386 | 0.808 | 0.473 | 0.393 |
| EFISEYCGEII [EZH2_Y641] | 1.05 | 0.664 | 0.576 | 0.616 | 0.678 | 1.05 | 1.61 | 0.901 | 0.905 | 0.692 | 0.716 | 1.33 | 0.604 | 0.947 | 0.617 | 0.809 |
| EFLRNYFTDKA [DSG2_Y775] | 0.962 | 0.414 | 0.528 | 0.567 | 0.573 | 0.622 | 1.09 | 0.572 | 0.764 | 0.48 | 0.472 | 1.08 | 0.569 | 1.03 | 0.444 | 1.03 |
| EFNINYNNEPP [THG1L_Y228_L232P] | 0.989 | 0.583 | 0.529 | 0.46 | 0.6 | 0.742 | 1.23 | 0.642 | 0.852 | 0.626 | 0.566 | 1.3 | 0.681 | 0.742 | 0.453 | 0.528 |
| EFNLMYHGTKE [IRF6_Y97_D98H] | 0.744 | 0.455 | 0.545 | 0.442 | 0.451 | 0.579 | 0.923 | 0.631 | 0.593 | 0.463 | 0.645 | 0.94 | 0.489 | 0.827 | 0.656 | 0.784 |
| EGNERYEGFCV [GRIA3_Y451_YF] | 1.01 | 0.554 | 0.479 | 0.431 | 0.55 | 0.697 | 1.12 | 0.662 | 0.783 | 0.58 | 0.515 | 1.15 | 0.649 | 0.74 | 1.52 | 0.66 |
| EGVPLYESATT [DCC_Y809] | 0.988 | 2.05 | 1.14 | 0.638 | 7.75 | 0.775 | 1.12 | 4.19 | 0.831 | 1.09 | 4.87 | 1.07 | 0.475 | 0.731 | 0.57 | 0.489 |
